For 39 molecules, normalised SPOT signal, Boehringer light units (BLU); mean over the file's lines of this peptide results are on record in publication PMC314469, “Protein Interaction Networks by Proteome Peptide Scanning” (PLoS Biology, 2004).

T1: Abp1 SH3 (ABP1_YEAST), P15891
T1 chain: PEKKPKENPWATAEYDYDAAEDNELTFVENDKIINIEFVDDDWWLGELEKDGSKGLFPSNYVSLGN

The target of the experiment is T1, Abp1 SH3 (ABP1_YEAST), P15891. Description: SPOT array.
With MKTTDTYPSLPKP [YMR205C 179-191], the normalised SPOT signal, Boehringer light units (BLU); mean over the file's lines of this peptide stood at 97.9.
Turning to NDRFSHTPQQQRP [YNL263C 17-29], the normalised SPOT signal, Boehringer light units (BLU); mean over the file's lines of this peptide was found to be 164.
The result for MSELHALLTFPERP [YDR465C 1-14] reads 18.5.
In the case of MNPKSSTPKIPRP [YPR065W 1-13] it was 1070; in that of MTSNNLPPGKRKP [YBR222C 343-355], 4880; in that of NESAPLQPFPERP [YFL041W 455-467], 26.2.
In the case of NSVDRHAFANPDKP [YLR153C 95-108] it was 103; in that of MQLGSLVPSSLKP [YLR413W 258-270], 3590; in that of MDDFVTPPDEVKP [YBR023C 712-724], 40.3.
Molecule MKHFFRLPTAFRP [YHR120W 1-13] returned a normalised SPOT signal, Boehringer light units (BLU); mean over the file's lines of this peptide of 538.
In the case of NESPRNVPIMVKP [YLL043W 210-222] it was 217.
The result for NDEEIKKPTDGKP [YMR012W 785-797] reads 33.6.
In the case of MKLEGTYEKIPEKP [YAL024C 1062-1075] it was 201.
Turning to MEEPFIWPEEPRP [YDR405W 164-176], the normalised SPOT signal, Boehringer light units (BLU); mean over the file's lines of this peptide stood at 184.
The result for MSISSKIRPTPRKP [YER118C 1-14] reads 2450.
The result for MQDYRPSPQSARP [YLL043W 81-93] reads 310.
The result for NATGKHFPKYFRP [YLR307W 189-201] reads 146.
MIEPAYRNGGPVKP [YOR093C 939-952] gave a normalised SPOT signal, Boehringer light units (BLU); mean over the file's lines of this peptide of 63.4.
In the case of MGARNVQPTMFKP [YDL164C 244-256] it was 6660; in that of MAKSQNKPKREKP [YDR381W 195-207], 2220.
The result for MRSHMEQPQSIKP [YOR329C 457-469] reads 1740; that for MEVGGVRNYVPQKP [YKL095W 108-121], 68; that for MTPGASANALPPKP [YDL195W 796-809], 91.9.
In the case of MFARLANPAHFKP [YOR226C 1-13] it was 2660.
In turn, MTAAKPNPYAAKP [YDL182W 1-13] had a normalised SPOT signal, Boehringer light units (BLU); mean over the file's lines of this peptide of 2430.
The result for MAKEDTGVTAPKKP [YOR086C 1-14] reads 119; that for MARGSHFPILNRP [YNL013C 89-101], 2480; that for NESFSLPPPQPKP [YFL044C 78-90], 61.2.
The molecule NEYKGLITIIPSKP [YOL152W 549-562] gave a normalised SPOT signal, Boehringer light units (BLU); mean over the file's lines of this peptide of 77.6.
In the case of NEAAKPSFSFPGKP [YOR098C 607-620] it was 38.
As to MPQNQGFPPQFKP [YCL037C 234-246], the normalised SPOT signal, Boehringer light units (BLU); mean over the file's lines of this peptide is 308.
As to MRSNPQQPPQDKP [YPL204W 475-487], the normalised SPOT signal, Boehringer light units (BLU); mean over the file's lines of this peptide was determined as 264.
In the case of MNIRPSISMRPIKP [YNL105W 40-53] it was 9140; in that of MNDDRETPPKRKP [YAL026C 1-13], 6180.
On to NATGNHTPKWFRP [YLR308W 199-211], for which the normalised SPOT signal, Boehringer light units (BLU); mean over the file's lines of this peptide worked out at 100.
In the case of MSKLLKHGWKPLRP [YJR126C 471-484] it was 267; in that of NDRNNADPEKKKP [YDR457W 2434-2446], 206; in that of NEDELDSPVQKKP [YKR086W 102-114], 54.4.
In the case of MDTMANILYYPQKP [YOR151C 789-802] it was 117.
